Assay results: patent US20150274841A1 (DYAX, published 2015)

Tests used:
[1] = target: T1, plasma kallikrein catalytic domain Mutant 1 (S478A, N481A, S506A, Y507A) (human, UniProt P03952 391-638); assay: enzyme inhibition assay: rate (F/s) of substrate peptide cleavage by PKal against [IgG] (nM), fitted to the Morrison equation; apparent Ki (Ki,app)
T1 construct: Expressed in Pichia pastoris
Method: (§1) Briefly, PKal and a Fab at various concentrations are incubated together for 1 hour at 30° C. A substrate peptide (cleavable by PKal) is then added to this PKal-Fab mixture. The rate of substrate peptide cleavage/proteolysis is then measured, and plotted against the concentrations of the Fab. This plot is then fit to the Morrison equation, which calculates the K_{i,app} value. The results thus obtained are shown in FIGS. 5A-5D and Table 3 below:
(§2) The inhibitory activity of X115-F02 against the wild-type PKal and the mutants were carried out using the method described in Example 3 above and the K_{i,app} values were determined.

[2] = target: T2, wild type plasma kallikrein catalytic domain (recombinant, Pichia pastoris) (human, UniProt P03952 391-638); assay: as above
T2 construct: also called wild-type PKal
Method: as §1, §2

[3] = target: T3, plasma kallikrein catalytic domain Mutant 4 (N396A, S398A, W399A) (human, UniProt P03952 391-638); assay: as above
T3 construct: Expressed in Pichia pastoris
Method: as §1, §2

[4] = target: T4, plasma kallikrein catalytic domain Mutant 2 (R551A, Q553A, Y555A, T558A, R560A) (human, UniProt P03952 391-638); assay: as above
T4 construct: Expressed in Pichia pastoris
Method: as §1, §2

[5] = target: T4, plasma kallikrein catalytic domain …; assay: Ki,app; IgG inhibition of PKal catalytic domain cleavage of a substrate peptide, Morrison fit
Method: as §1, §2

T4 sequence (P03952 391-638 R551A/Q553A/Y555A/T558A/R560A): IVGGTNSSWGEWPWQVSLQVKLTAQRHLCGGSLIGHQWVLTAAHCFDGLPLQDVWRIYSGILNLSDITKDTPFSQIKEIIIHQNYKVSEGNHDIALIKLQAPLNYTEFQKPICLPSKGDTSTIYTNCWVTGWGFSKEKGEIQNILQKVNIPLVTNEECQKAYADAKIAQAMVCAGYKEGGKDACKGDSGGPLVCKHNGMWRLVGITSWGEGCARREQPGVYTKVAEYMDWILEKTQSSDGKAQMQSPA
T2 sequence (P03952 391-638): as the sequence (P03952 391-638 R551A/Q553A/Y555A/T558A/R560A) above, with A161R, A163Q, A165Y, A168T, A170R counted along it
T3 sequence (P03952 391-638 N396A/S398A/W399A): as the sequence (P03952 391-638 R551A/Q553A/Y555A/T558A/R560A) above, with N6A, S8A, W9A, A161R, A163Q, A165Y, A168T, A170R counted along it
T1 sequence (P03952 391-638 S478A/N481A/C503S/S506A/K507A limits assumed): as the sequence (P03952 391-638 R551A/Q553A/Y555A/T558A/R560A) above, with S88A, N91A, C113S, S116A, K117A, A161R, A163Q, A165Y, A168T, A170R counted along it

B1: X115-F02 (antibody, human IgG1, kappa, V domains shown)
VH: EVQLLESGGGLVQPGGSLRLSCAASGFTFSHYIMMWVRQAPGKGLEWVSGIYSSGGITVYADSVKGRFTISRDNSKNTLYLQMNSLRAEDTAVYYCAYRRIGVPRRDEFDIWGQGTMVTVSS
VL: DIQMTQSPSTLSASVGDRVTITCRASQSISSWLAWYQQKPGKAPKLLIYKASTLESGVPSRFSGSGSGTEFTLTISSLQPDDFATYYCQQYNTYWTFGQGTKVEIKR
notes: also called mutant X115-F02
Ki [1]: 0.14 nM
Ki [2]: 0.09 nM
Ki [3]: 0.1 nM
Ki [4]: 5.9 nM
fold reduction of potency (Ki,app) against wild-type PKal [5]: ~65 fold
